Values belong to the substance of their own block, whether it stands above or below them.
Tests used:
[1] = molecular target: mouse immunoglobulin (MIgG); assay: binding to BIOMAG-MIgG; fluorescence
[2] = molecular target: phycobilisome-GAM conjugate (glutaraldehyde-stabilized P. cruentum phycobilisomes conjugated to affinity-purified, Fc-specific goat anti-mouse IgG); assay: displacement of conjugate prebound to BIOMAG-RIgG (competitor RIgG); MIgG 1 ng/test
[3] = molecular target: phycobilisome-GAM conjugate (glutaraldehyde-stabilized P. cruentum phycobilisomes conjugated to affinity-purified, Fc-specific goat anti-mouse IgG); assay: displacement of conjugate prebound to BIOMAG-RIgG (competitor RIgG); MIgG 10 ng/test
[4] = molecular target: phycobilisome-GAM conjugate (glutaraldehyde-stabilized P. cruentum phycobilisomes conjugated to affinity-purified, Fc-specific goat anti-mouse IgG); assay: displacement of conjugate prebound to BIOMAG-RIgG (competitor RIgG); MIgG 100 ng/test
[5] = molecular target: phycobilisome-GAM conjugate (glutaraldehyde-stabilized P. cruentum phycobilisomes conjugated to affinity-purified, Fc-specific goat anti-mouse IgG); assay: displacement of conjugate prebound to BIOMAG-RIgG (competitor RIgG); MIgG 1,000 ng/test
[6] = molecular target: phycobilisome-GAM conjugate (glutaraldehyde-stabilized P. cruentum phycobilisomes conjugated to affinity-purified, Fc-specific goat anti-mouse IgG); assay: displacement of conjugate prebound to BIOMAG-RIgG (competitor RIgG); MIgG 10,000 ng/test
[7] = molecular target: phycobilisome-GAM conjugate (glutaraldehyde-stabilized P. cruentum phycobilisomes conjugated to affinity-purified, Fc-specific goat anti-mouse IgG); assay: microtiter displacement of conjugate prebound to RIgG-coated wells (competitor RIgG); MIgG 1 ng/test
[8] = molecular target: phycobilisome-GAM conjugate (glutaraldehyde-stabilized P. cruentum phycobilisomes conjugated to affinity-purified, Fc-specific goat anti-mouse IgG); assay: microtiter displacement of conjugate prebound to RIgG-coated wells (competitor RIgG); MIgG 10 ng/test
[9] = molecular target: phycobilisome-GAM conjugate (glutaraldehyde-stabilized P. cruentum phycobilisomes conjugated to affinity-purified, Fc-specific goat anti-mouse IgG); assay: microtiter displacement of conjugate prebound to RIgG-coated wells (competitor RIgG); MIgG 100 ng/test
[10] = molecular target: phycobilisome-GAM conjugate (glutaraldehyde-stabilized P. cruentum phycobilisomes conjugated to affinity-purified, Fc-specific goat anti-mouse IgG); assay: microtiter displacement of conjugate prebound to RIgG-coated wells (competitor RIgG); MIgG 1,000 ng/test
[11] = molecular target: mouse immunoglobulin (MIgG); assay: photometric; PB-GAM 3 ug/test, BIOMAG-MIgG 30 ug/test
[12] = molecular target: mouse immunoglobulin (MIgG); assay: photometric; PB-GAM 12 ug/test, BIOMAG-MIgG 30 ug/test
[13] = molecular target: mouse immunoglobulin (MIgG); assay: photometric; PB-GAM 3 ug/test, BIOMAG-MIgG 100 ug/test
[14] = molecular target: mouse immunoglobulin (MIgG); assay: photometric; PB-GAM 3 ug/test, BIOMAG-MIgG 300 ug/test
[15] = molecular target: mouse immunoglobulin (MIgG); assay: photometric; PB-GAM 40 ug/test, BIOMAG-MIgG 30 ug/test
[16] = molecular target: mouse immunoglobulin (MIgG); assay: photometric; PB-GAM 12 ug/test, BIOMAG-MIgG 100 ug/test
[17] = molecular target: mouse immunoglobulin (MIgG); assay: photometric; PB-GAM 12 ug/test, BIOMAG-MIgG 300 ug/test
[18] = molecular target: mouse immunoglobulin (MIgG); assay: photometric; PB-GAM 40 ug/test, BIOMAG-MIgG 100 ug/test
[19] = molecular target: mouse immunoglobulin (MIgG); assay: photometric; PB-GAM 40 ug/test, BIOMAG-MIgG 300 ug/test
[20] = molecular target: mouse immunoglobulin (MIgG); assay: 50 ul conjugate (80 ug/ml) + BIOMAG-MIgG 1 mg/test; soluble MIgG 0
[21] = molecular target: mouse immunoglobulin (MIgG); assay: binding to BIOMAG-MIgG, solid phase in pseudo-excess; fluorescence
[22] = molecular target: mouse immunoglobulin (MIgG); assay: photometric; PB-GAM 3 ug/test, soluble MIgG 0, BIOMAG-MIgG 30 ug/test
[23] = molecular target: mouse immunoglobulin (MIgG); assay: photometric; PB-GAM 12 ug/test, soluble MIgG 0, BIOMAG-MIgG 30 ug/test
[24] = molecular target: mouse immunoglobulin (MIgG); assay: photometric; PB-GAM 3 ug/test, soluble MIgG 0, BIOMAG-MIgG 100 ug/test
[25] = molecular target: mouse immunoglobulin (MIgG); assay: photometric; PB-GAM 3 ug/test, soluble MIgG 0, BIOMAG-MIgG 300 ug/test
[26] = molecular target: mouse immunoglobulin (MIgG); assay: photometric; PB-GAM 40 ug/test, soluble MIgG 0, BIOMAG-MIgG 30 ug/test
[27] = molecular target: mouse immunoglobulin (MIgG); assay: photometric; PB-GAM 12 ug/test, soluble MIgG 0, BIOMAG-MIgG 100 ug/test
[28] = molecular target: mouse immunoglobulin (MIgG); assay: photometric; PB-GAM 12 ug/test, soluble MIgG 0, BIOMAG-MIgG 300 ug/test
[29] = molecular target: mouse immunoglobulin (MIgG); assay: photometric; PB-GAM 40 ug/test, soluble MIgG 0, BIOMAG-MIgG 100 ug/test
[30] = molecular target: mouse immunoglobulin (MIgG); assay: photometric; PB-GAM 40 ug/test, soluble MIgG 0, BIOMAG-MIgG 300 ug/test
[31] = molecular target: mouse immunoglobulin (MIgG); assay: 50 ul conjugate (80 ug/ml) + BIOMAG-MIgG 1 mg/test; soluble MIgG 1 ng/test
[32] = molecular target: mouse immunoglobulin (MIgG); assay: 50 ul conjugate (80 ug/ml) + BIOMAG-MIgG 1 mg/test; soluble MIgG 10 ug/test
[33] = molecular target: mouse immunoglobulin (MIgG); assay: photometric; PB-GAM 3 ug/test, soluble MIgG 10 ug/test, BIOMAG-MIgG 30 ug/test
[34] = molecular target: mouse immunoglobulin (MIgG); assay: photometric; PB-GAM 12 ug/test, soluble MIgG 10 ug/test, BIOMAG-MIgG 30 ug/test
[35] = molecular target: mouse immunoglobulin (MIgG); assay: photometric; PB-GAM 3 ug/test, soluble MIgG 10 ug/test, BIOMAG-MIgG 100 ug/test
[36] = molecular target: mouse immunoglobulin (MIgG); assay: photometric; PB-GAM 3 ug/test, soluble MIgG 10 ug/test, BIOMAG-MIgG 300 ug/test
[37] = molecular target: mouse immunoglobulin (MIgG); assay: photometric; PB-GAM 40 ug/test, soluble MIgG 10 ug/test, BIOMAG-MIgG 30 ug/test
[38] = molecular target: mouse immunoglobulin (MIgG); assay: photometric; PB-GAM 12 ug/test, soluble MIgG 10 ug/test, BIOMAG-MIgG 100 ug/test
[39] = molecular target: mouse immunoglobulin (MIgG); assay: photometric; PB-GAM 12 ug/test, soluble MIgG 10 ug/test, BIOMAG-MIgG 300 ug/test
[40] = molecular target: mouse immunoglobulin (MIgG); assay: photometric; PB-GAM 40 ug/test, soluble MIgG 10 ug/test, BIOMAG-MIgG 100 ug/test
[41] = molecular target: mouse immunoglobulin (MIgG); assay: photometric; PB-GAM 40 ug/test, soluble MIgG 10 ug/test, BIOMAG-MIgG 300 ug/test
rabbit IgG (RIgG) [42] = assay: displacement assay; conjugate prebound to BIOMAG-RIgG; MIgG 0 ng/test (baseline)
[43] = molecular target: mouse immunoglobulin (MIgG); assay: competitive fluoroimmunoassay; 250 ng conjugate, 250 ug BIOMAG-MIgG per test; soluble MIgG 0
rabbit IgG (RIgG) [44] = assay: microtiter displacement assay; conjugate prebound to RIgG-coated wells; MIgG 0 ng/test (baseline)
[45] = molecular target: mouse immunoglobulin (MIgG); assay: competitive fluoroimmunoassay; 250 ng conjugate, 250 ug BIOMAG-MIgG per test; soluble MIgG 1 ng/test
[46] = molecular target: mouse immunoglobulin (MIgG); assay: competitive fluoroimmunoassay; 250 ng conjugate, 250 ug BIOMAG-MIgG per test; soluble MIgG 10 ng/test
[47] = molecular target: mouse immunoglobulin (MIgG); assay: competitive fluoroimmunoassay; 250 ng conjugate, 250 ug BIOMAG-MIgG per test; soluble MIgG 100 ng/test
[48] = molecular target: mouse immunoglobulin (MIgG); assay: competitive fluoroimmunoassay; 250 ng conjugate, 250 ug BIOMAG-MIgG per test; soluble MIgG 1,000 ng/test

% specific binding [1]: 60%
Substance: GAM antibody conjugated by glutaraldehyde to formaldehyde-stabilized phycobilisomes

% of maximal displacement [2]: 6.1%
E666 (supernatant fluorescence) [2]: 1.07e+06 cps
displacement [2]: 19000 cps
% of maximal displacement [3]: 10.4%
E666 (supernatant fluorescence) [3]: 1.08e+06 cps
displacement [3]: 32000 cps
% of maximal displacement [4]: 35.3%
E666 (supernatant fluorescence) [4]: 1.16e+06 cps
displacement [4]: 109000 cps
% of maximal displacement [5]: 62.5%
E666 (supernatant fluorescence) [5]: 1.25e+06 cps
displacement [5]: 193000 cps
% of maximal displacement [6]: 100%
E666 (supernatant fluorescence) [6]: 1.36e+06 cps
displacement [6]: 309000 cps
% of maximal displacement [7]: 36.8%
E666 (fluorescence) [7]: 411000 cps
displacement [7]: 68000 cps
% of maximal displacement [8]: 73%
E666 (fluorescence) [8]: 478000 cps
displacement [8]: 135000 cps
% of maximal displacement [9]: 98.4%
E666 (fluorescence) [9]: 525000 cps
displacement [9]: 182000 cps
% of maximal displacement [10]: 100%
E666 (fluorescence) [10]: 528000 cps
displacement [10]: 185000 cps
Substance: mouse immunoglobulin (MIgG) (antibody)

% binding [11]: 0%
% binding [12]: 4.5%
% binding [13]: 16.7%
% binding [14]: 66.7%
% binding [15]: 0%
% binding [16]: 20.6%
% binding [17]: 33.3%
% binding [18]: 4.7%
% binding [19]: 18.8%
% bound [20]: 42.1%
Supernatant E666 [20]: 2.24e+06 cps
% specific binding [21]: < 60%
Supernatant Absorbance [22]: 12 mAU/ml
Supernatant Absorbance [23]: 63 mAU/ml
Supernatant Absorbance [24]: 10 mAU/ml
Supernatant Absorbance [25]: 4 mAU/ml
Supernatant Absorbance [26]: 210 mAU/ml
Supernatant Absorbance [27]: 54 mAU/ml
Supernatant Absorbance [28]: 44 mAU/ml
Supernatant Absorbance [29]: 200 mAU/ml
Supernatant Absorbance [30]: 173 mAU/ml
% bound [31]: 28%
MIgG inhibition [31]: 547000 cps
Supernatant E666 [31]: 2.79e+06 cps
% bound [32]: 0%
MIgG inhibition [32]: 1.63e+06 cps
Supernatant E666 [32]: 3.88e+06 cps
Supernatant Absorbance [33]: 12 mAU/ml
Supernatant Absorbance [34]: 66 mAU/ml
Supernatant Absorbance [35]: 12 mAU/ml
Supernatant Absorbance [36]: 12 mAU/ml
Supernatant Absorbance [37]: 210 mAU/ml
Supernatant Absorbance [38]: 68 mAU/ml
Supernatant Absorbance [39]: 66 mAU/ml
Supernatant Absorbance [40]: 212 mAU/ml
Supernatant Absorbance [41]: 213 mAU/ml
E666 (supernatant fluorescence) (rabbit IgG (RIgG) [42]): 1.05e+06 cps
% bound [43]: 24.3%
E666 [43]: 374000 cps
E666 (fluorescence) (rabbit IgG (RIgG) [44]): 343000 cps
% bound [45]: 19%
E666 [45]: 400000 cps
inhibition [45]: 26000 cps
% bound [46]: 11.1%
E666 [46]: 439000 cps
inhibition [46]: 65000 cps
% bound [47]: 0.8%
E666 [47]: 490000 cps
inhibition [47]: 116000 cps
% bound [48]: 0%
E666 [48]: 494000 cps
inhibition [48]: 120000 cps
Substance: phycobilisome-GAM conjugate (glutaraldehyde-stabilized P. cruentum phycobilisomes conjugated to affinity-purified, Fc-specific goat anti-mouse IgG) (antibody)

— patent US20030134325A1
